T1: Ctr9^(1–270) (S. cerevisiae, UniProt P89105 1-270)
T1 construct: S. cerevisiae Ctr9, residues 1-270
T1 sequence (looked up): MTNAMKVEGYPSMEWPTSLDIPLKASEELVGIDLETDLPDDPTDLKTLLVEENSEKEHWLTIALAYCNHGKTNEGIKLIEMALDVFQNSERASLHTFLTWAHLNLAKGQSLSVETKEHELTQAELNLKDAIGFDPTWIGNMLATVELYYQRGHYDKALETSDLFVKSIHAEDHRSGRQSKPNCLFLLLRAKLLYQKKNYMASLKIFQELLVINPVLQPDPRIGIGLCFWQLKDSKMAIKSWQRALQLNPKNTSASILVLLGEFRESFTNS

T2: Ctr9^(1–313) (S. cerevisiae, UniProt P89105 1-313)
T2 construct: In the crystal it stood as part of the single-chain fusion m36; source: E. coli BL21(DE3) Codon Plus, co-expressed with a Paf1 fragment, purified (Ni-NTA, SEC)
T2 sequence (looked up): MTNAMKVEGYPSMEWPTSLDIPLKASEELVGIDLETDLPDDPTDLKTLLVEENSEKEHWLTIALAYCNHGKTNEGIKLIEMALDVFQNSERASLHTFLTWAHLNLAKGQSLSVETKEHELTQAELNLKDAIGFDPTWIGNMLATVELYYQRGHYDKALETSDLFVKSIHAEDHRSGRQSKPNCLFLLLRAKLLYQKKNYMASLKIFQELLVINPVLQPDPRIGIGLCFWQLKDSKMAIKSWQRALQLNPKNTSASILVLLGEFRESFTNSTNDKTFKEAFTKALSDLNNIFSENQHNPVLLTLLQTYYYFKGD


Experiments:
Ctr9^(1–270) = molecular target: T1, Ctr9^(1–270); assay: AUC; sedimentation velocity, 42,000 rpm, 4 °C, interference detection; 20 mM HEPES pH 7.5, 150 mM NaCl, 1 mM EDTA, 1 mM DTT; conditions: both partners purified
Ctr9^(1–313) = molecular target: T2, Ctr9^(1–313); assay: SEC; two fragments co-expressed in E. coli and co-purified; analytical size-exclusion column with SDS-PAGE of the fractions; conditions: both partners purified

stoichiometry N (Ctr9^(1–270)) | binding result (Ctr9^(1–313)) | Binder
1 |  | Paf1^(34–103) (domain or fragment, S. cerevisiae, UniProt P38351 34-103, looked up, In the crystal it stood as part of the single-chain fusion m36; source: E. coli BL21(DE3) Codon Plus, co-expressed with a Ctr9 fragment, purified (Ni-NTA, SEC)) ETNADSSQLINSLYIKTNVTNLIQQDEDLGMPVDLMKFPGLLNKLDSKLLYGFDNVKLDKDDRILLRDPR
 | binds | DEDLGMPVDLMKFPGLLNKLDSKLLYGFDNVKLDKDDRILLRDPR (domain or fragment, S. cerevisiae, UniProt P38351 59-103, looked up) [Paf1^(59–103)]
